Measured values: paper PMC10178846, “CERT1 mutations perturb human development by disrupting sphingolipid homeostasis” (The Journal of Clinical Investigation, 2023)
Where “and” joins values, the source holds several entries; their conditions need not be identical. Equal values may be shown once.

B1: CERT construct encompassing the PH plus CCD domains (aa 1-341) (domain or fragment, human, UniProt Q9Y5P4-1 1-341, looked up)
chain: MSDNQSWNSSGSEEDPETESGPPVERCGVLSKWTNYIHGWQDRWVVLKNNALSYYKSEDETEYGCRGSICLSKAVITPHDFDECRFDISVNDSVWYLRAQDPDHRQQWIDAIEQHKTESGYGSESSLRRHGSMVSLVSGASGYSATSTSSFKKGHSLREKLAEMETFRDILCRQVDTLQKYFDACADAVSKDELQRDKVVEDDEDDFPTTRSDGDFLHSTNGNKEKLFPHVTPKGINGIDFKGEAITFKATTAGILATLSHCIELMVKREDSWQKRLDKETEKKRRTEEAYKNAMTELKKKSHFGGPDYEEGPNSLINEEEFFDAVEAALDRQDKIEEQSQ
notes: human CERT (CERT1 isoform 1, CERTL), residues 1-341, PH plus CCD domains
B2: CERT central core domain (CCD), purified recombinant CERT 151-309 WT (domain or fragment, human, UniProt Q9Y5P4-1 151-309, looked up)
chain: FKKGHSLREKLAEMETFRDILCRQVDTLQKYFDACADAVSKDELQRDKVVEDDEDDFPTTRSDGDFLHSTNGNKEKLFPHVTPKGINGIDFKGEAITFKATTAGILATLSHCIELMVKREDSWQKRLDKETEKKRRTEEAYKNAMTELKKKSHFGGPDY
notes: human CERT (CERT1 isoform 1, CERTL), residues 151-309, central core domain; Theoretical MW is printed as 18.5 kDa; also called CERT CCD; source: recombinant, purified
B3: ceramide transporter CERT, recombinant full-length (CERT1 isoform 1, CERTL) (natural protein, human, UniProt Q9Y5P4-1 1-624, looked up)
chain: MSDNQSWNSSGSEEDPETESGPPVERCGVLSKWTNYIHGWQDRWVVLKNNALSYYKSEDETEYGCRGSICLSKAVITPHDFDECRFDISVNDSVWYLRAQDPDHRQQWIDAIEQHKTESGYGSESSLRRHGSMVSLVSGASGYSATSTSSFKKGHSLREKLAEMETFRDILCRQVDTLQKYFDACADAVSKDELQRDKVVEDDEDDFPTTRSDGDFLHSTNGNKEKLFPHVTPKGINGIDFKGEAITFKATTAGILATLSHCIELMVKREDSWQKRLDKETEKKRRTEEAYKNAMTELKKKSHFGGPDYEEGPNSLINEEEFFDAVEAALDRQDKIEEQSQSEKVRLHWPTSLPSGDAFSSVGTHRFVQKPYSRSSSMSSIDLVSASDDVHRFSSQVEEMVQNHMTYSLQDVGGDANWQLVVEEGEMKVYRREVEENGIVLDPLKATHAVKGVTGHEVCNYFWNVDVRNDWETTIENFHVVETLADNAIIIYQTHKRVWPASQRDVLYLSVIRKIPALTENDPETWIVCNFSVDHDSAPLNNRCVRAKINVAMICQTLVSPPEGNQEISRDNILCKITYVANVNPGGWAPASVLRAVAKREYPKFLKRFTSYVQEKTAGKPILF
notes: human ceramide transporter CERT (CERT1), isoform 1 (CERTL), NP_005704; full-length recombinant protein; also called CERT WT; source: recombinant

Experiments:
[1] = target: the molecule itself; experiment: SEC-MALS; size-exclusion chromatography coupled to multiangle light scattering of recombinant CERT constructs; absolute molar mass
[2] = target: the molecule itself; experiment: native MS; native MS of purified recombinant CERT 151-309 WT; deconvoluted mass spectrum

Protein	stoichiometry N [1]	stoichiometry N [2]
B1	2	–
B2	–	2 and 4
B3	2	–
